We go through 20 molecules from patent publication US20210388087A1 (Chugai, published 2021).

The labels stand for the following.
B1: H183/L072 VL M27eN (antibody, name in Kabat numbering, V domains shown)
VH: QVQLVESGGGLVQPGRSLRLSCAASGFTFSNAWMHWVRQAPGKGLEWVAQIKDKGNAYAAYYAPSVKGRFTISRDDSKNSIYLQMNSLKTEDTAVYYCHYVHYASASTVLPAFGVDAWGQGTTVTVSS
VL: DIVMTQSPLSLPVTPGEPASISCQASQELVHNNRNTYLHWYQQKPGQAPRLLIYKVSNRFPGVPDRFSGSGSGTDFTLKISRVEAEDVGVYYCAQGTSVPFTFGQGTKLEIK
notes: Dual-Ig
B2: H183/L072 VL N28A (antibody, name in Kabat numbering, V domains shown)
VH: QVQLVESGGGLVQPGRSLRLSCAASGFTFSNAWMHWVRQAPGKGLEWVAQIKDKGNAYAAYYAPSVKGRFTISRDDSKNSIYLQMNSLKTEDTAVYYCHYVHYASASTVLPAFGVDAWGQGTTVTVSS
VL: DIVMTQSPLSLPVTPGEPASISCQASQELVHMARNTYLHWYQQKPGQAPRLLIYKVSNRFPGVPDRFSGSGSGTDFTLKISRVEAEDVGVYYCAQGTSVPFTFGQGTKLEIK
notes: Dual-Ig
B3: H183/L072 VL N28P (antibody, name in Kabat numbering, V domains shown)
VH: QVQLVESGGGLVQPGRSLRLSCAASGFTFSNAWMHWVRQAPGKGLEWVAQIKDKGNAYAAYYAPSVKGRFTISRDDSKNSIYLQMNSLKTEDTAVYYCHYVHYASASTVLPAFGVDAWGQGTTVTVSS
VL: DIVMTQSPLSLPVTPGEPASISCQASQELVHMPRNTYLHWYQQKPGQAPRLLIYKVSNRFPGVPDRFSGSGSGTDFTLKISRVEAEDVGVYYCAQGTSVPFTFGQGTKLEIK
notes: Dual-Ig
B4: H183/L072 VL N28K (antibody, name in Kabat numbering, V domains shown)
VH: QVQLVESGGGLVQPGRSLRLSCAASGFTFSNAWMHWVRQAPGKGLEWVAQIKDKGNAYAAYYAPSVKGRFTISRDDSKNSIYLQMNSLKTEDTAVYYCHYVHYASASTVLPAFGVDAWGQGTTVTVSS
VL: DIVMTQSPLSLPVTPGEPASISCQASQELVHMKRNTYLHWYQQKPGQAPRLLIYKVSNRFPGVPDRFSGSGSGTDFTLKISRVEAEDVGVYYCAQGTSVPFTFGQGTKLEIK
notes: Dual-Ig
B5: H183/L072 VL M27eS (antibody, name in Kabat numbering, V domains shown)
VH: QVQLVESGGGLVQPGRSLRLSCAASGFTFSNAWMHWVRQAPGKGLEWVAQIKDKGNAYAAYYAPSVKGRFTISRDDSKNSIYLQMNSLKTEDTAVYYCHYVHYASASTVLPAFGVDAWGQGTTVTVSS
VL: DIVMTQSPLSLPVTPGEPASISCQASQELVHSNRNTYLHWYQQKPGQAPRLLIYKVSNRFPGVPDRFSGSGSGTDFTLKISRVEAEDVGVYYCAQGTSVPFTFGQGTKLEIK
notes: Dual-Ig
B6: H183/L072 VL M27eT (antibody, name in Kabat numbering, V domains shown)
VH: QVQLVESGGGLVQPGRSLRLSCAASGFTFSNAWMHWVRQAPGKGLEWVAQIKDKGNAYAAYYAPSVKGRFTISRDDSKNSIYLQMNSLKTEDTAVYYCHYVHYASASTVLPAFGVDAWGQGTTVTVSS
VL: DIVMTQSPLSLPVTPGEPASISCQASQELVHTNRNTYLHWYQQKPGQAPRLLIYKVSNRFPGVPDRFSGSGSGTDFTLKISRVEAEDVGVYYCAQGTSVPFTFGQGTKLEIK
notes: Dual-Ig
B7: H183/L072 VL N28Q (antibody, name in Kabat numbering, V domains shown)
VH: QVQLVESGGGLVQPGRSLRLSCAASGFTFSNAWMHWVRQAPGKGLEWVAQIKDKGNAYAAYYAPSVKGRFTISRDDSKNSIYLQMNSLKTEDTAVYYCHYVHYASASTVLPAFGVDAWGQGTTVTVSS
VL: DIVMTQSPLSLPVTPGEPASISCQASQELVHMQRNTYLHWYQQKPGQAPRLLIYKVSNRFPGVPDRFSGSGSGTDFTLKISRVEAEDVGVYYCAQGTSVPFTFGQGTKLEIK
notes: Dual-Ig
B8: H183/L072 VL M27eR (antibody, name in Kabat numbering, V domains shown)
VH: QVQLVESGGGLVQPGRSLRLSCAASGFTFSNAWMHWVRQAPGKGLEWVAQIKDKGNAYAAYYAPSVKGRFTISRDDSKNSIYLQMNSLKTEDTAVYYCHYVHYASASTVLPAFGVDAWGQGTTVTVSS
VL: DIVMTQSPLSLPVTPGEPASISCQASQELVHRNRNTYLHWYQQKPGQAPRLLIYKVSNRFPGVPDRFSGSGSGTDFTLKISRVEAEDVGVYYCAQGTSVPFTFGQGTKLEIK
notes: Dual-Ig
B9: H183/L072 VL N28I (antibody, name in Kabat numbering, V domains shown)
VH: QVQLVESGGGLVQPGRSLRLSCAASGFTFSNAWMHWVRQAPGKGLEWVAQIKDKGNAYAAYYAPSVKGRFTISRDDSKNSIYLQMNSLKTEDTAVYYCHYVHYASASTVLPAFGVDAWGQGTTVTVSS
VL: DIVMTQSPLSLPVTPGEPASISCQASQELVHMIRNTYLHWYQQKPGQAPRLLIYKVSNRFPGVPDRFSGSGSGTDFTLKISRVEAEDVGVYYCAQGTSVPFTFGQGTKLEIK
notes: Dual-Ig
B10: H183/L072 VL M27eQ (antibody, name in Kabat numbering, V domains shown)
VH: QVQLVESGGGLVQPGRSLRLSCAASGFTFSNAWMHWVRQAPGKGLEWVAQIKDKGNAYAAYYAPSVKGRFTISRDDSKNSIYLQMNSLKTEDTAVYYCHYVHYASASTVLPAFGVDAWGQGTTVTVSS
VL: DIVMTQSPLSLPVTPGEPASISCQASQELVHQNRNTYLHWYQQKPGQAPRLLIYKVSNRFPGVPDRFSGSGSGTDFTLKISRVEAEDVGVYYCAQGTSVPFTFGQGTKLEIK
notes: Dual-Ig
B11: H183/L072 VL N28E (antibody, name in Kabat numbering, V domains shown)
VH: QVQLVESGGGLVQPGRSLRLSCAASGFTFSNAWMHWVRQAPGKGLEWVAQIKDKGNAYAAYYAPSVKGRFTISRDDSKNSIYLQMNSLKTEDTAVYYCHYVHYASASTVLPAFGVDAWGQGTTVTVSS
VL: DIVMTQSPLSLPVTPGEPASISCQASQELVHMERNTYLHWYQQKPGQAPRLLIYKVSNRFPGVPDRFSGSGSGTDFTLKISRVEAEDVGVYYCAQGTSVPFTFGQGTKLEIK
notes: Dual-Ig
B12: H183/L072 VL N28L (antibody, name in Kabat numbering, V domains shown)
VH: QVQLVESGGGLVQPGRSLRLSCAASGFTFSNAWMHWVRQAPGKGLEWVAQIKDKGNAYAAYYAPSVKGRFTISRDDSKNSIYLQMNSLKTEDTAVYYCHYVHYASASTVLPAFGVDAWGQGTTVTVSS
VL: DIVMTQSPLSLPVTPGEPASISCQASQELVHMLRNTYLHWYQQKPGQAPRLLIYKVSNRFPGVPDRFSGSGSGTDFTLKISRVEAEDVGVYYCAQGTSVPFTFGQGTKLEIK
notes: Dual-Ig
B13: H183/L072 VL N28H (antibody, name in Kabat numbering, V domains shown)
VH: QVQLVESGGGLVQPGRSLRLSCAASGFTFSNAWMHWVRQAPGKGLEWVAQIKDKGNAYAAYYAPSVKGRFTISRDDSKNSIYLQMNSLKTEDTAVYYCHYVHYASASTVLPAFGVDAWGQGTTVTVSS
VL: DIVMTQSPLSLPVTPGEPASISCQASQELVHMHRNTYLHWYQQKPGQAPRLLIYKVSNRFPGVPDRFSGSGSGTDFTLKISRVEAEDVGVYYCAQGTSVPFTFGQGTKLEIK
notes: Dual-Ig
B14: H183/L072 VL M27eP (antibody, name in Kabat numbering, V domains shown)
VH: QVQLVESGGGLVQPGRSLRLSCAASGFTFSNAWMHWVRQAPGKGLEWVAQIKDKGNAYAAYYAPSVKGRFTISRDDSKNSIYLQMNSLKTEDTAVYYCHYVHYASASTVLPAFGVDAWGQGTTVTVSS
VL: DIVMTQSPLSLPVTPGEPASISCQASQELVHPNRNTYLHWYQQKPGQAPRLLIYKVSNRFPGVPDRFSGSGSGTDFTLKISRVEAEDVGVYYCAQGTSVPFTFGQGTKLEIK
notes: Dual-Ig
B15: H183/L072 VL N28M (antibody, name in Kabat numbering, V domains shown)
VH: QVQLVESGGGLVQPGRSLRLSCAASGFTFSNAWMHWVRQAPGKGLEWVAQIKDKGNAYAAYYAPSVKGRFTISRDDSKNSIYLQMNSLKTEDTAVYYCHYVHYASASTVLPAFGVDAWGQGTTVTVSS
VL: DIVMTQSPLSLPVTPGEPASISCQASQELVHMMRNTYLHWYQQKPGQAPRLLIYKVSNRFPGVPDRFSGSGSGTDFTLKISRVEAEDVGVYYCAQGTSVPFTFGQGTKLEIK
notes: Dual-Ig
B16: H183/L072 VL M27eV (antibody, name in Kabat numbering, V domains shown)
VH: QVQLVESGGGLVQPGRSLRLSCAASGFTFSNAWMHWVRQAPGKGLEWVAQIKDKGNAYAAYYAPSVKGRFTISRDDSKNSIYLQMNSLKTEDTAVYYCHYVHYASASTVLPAFGVDAWGQGTTVTVSS
VL: DIVMTQSPLSLPVTPGEPASISCQASQELVHVNRNTYLHWYQQKPGQAPRLLIYKVSNRFPGVPDRFSGSGSGTDFTLKISRVEAEDVGVYYCAQGTSVPFTFGQGTKLEIK
notes: Dual-Ig
B17: H183/L072 VL M27eW (antibody, name in Kabat numbering, V domains shown)
VH: QVQLVESGGGLVQPGRSLRLSCAASGFTFSNAWMHWVRQAPGKGLEWVAQIKDKGNAYAAYYAPSVKGRFTISRDDSKNSIYLQMNSLKTEDTAVYYCHYVHYASASTVLPAFGVDAWGQGTTVTVSS
VL: DIVMTQSPLSLPVTPGEPASISCQASQELVHWNRNTYLHWYQQKPGQAPRLLIYKVSNRFPGVPDRFSGSGSGTDFTLKISRVEAEDVGVYYCAQGTSVPFTFGQGTKLEIK
notes: Dual-Ig
B18: H183/L072 VL N28F (antibody, name in Kabat numbering, V domains shown)
VH: QVQLVESGGGLVQPGRSLRLSCAASGFTFSNAWMHWVRQAPGKGLEWVAQIKDKGNAYAAYYAPSVKGRFTISRDDSKNSIYLQMNSLKTEDTAVYYCHYVHYASASTVLPAFGVDAWGQGTTVTVSS
VL: DIVMTQSPLSLPVTPGEPASISCQASQELVHMFRNTYLHWYQQKPGQAPRLLIYKVSNRFPGVPDRFSGSGSGTDFTLKISRVEAEDVGVYYCAQGTSVPFTFGQGTKLEIK
notes: Dual-Ig
B19: H183/L072 VL M27eY (antibody, name in Kabat numbering, V domains shown)
VH: QVQLVESGGGLVQPGRSLRLSCAASGFTFSNAWMHWVRQAPGKGLEWVAQIKDKGNAYAAYYAPSVKGRFTISRDDSKNSIYLQMNSLKTEDTAVYYCHYVHYASASTVLPAFGVDAWGQGTTVTVSS
VL: DIVMTQSPLSLPVTPGEPASISCQASQELVHYNRNTYLHWYQQKPGQAPRLLIYKVSNRFPGVPDRFSGSGSGTDFTLKISRVEAEDVGVYYCAQGTSVPFTFGQGTKLEIK
notes: Dual-Ig
B20: H183/L072 VL N28G (antibody, name in Kabat numbering, V domains shown)
VH: QVQLVESGGGLVQPGRSLRLSCAASGFTFSNAWMHWVRQAPGKGLEWVAQIKDKGNAYAAYYAPSVKGRFTISRDDSKNSIYLQMNSLKTEDTAVYYCHYVHYASASTVLPAFGVDAWGQGTTVTVSS
VL: DIVMTQSPLSLPVTPGEPASISCQASQELVHMGRNTYLHWYQQKPGQAPRLLIYKVSNRFPGVPDRFSGSGSGTDFTLKISRVEAEDVGVYYCAQGTSVPFTFGQGTKLEIK
notes: Dual-Ig

This experiment deals with T1, Human CD137 ECD (human).
T1 construct: entry includes C-terminal His-tag and biotin acceptor peptide; also called human CD137 extracellular domain; 4-1BB
T1 sequence (chain, as listed by the source limits assumed): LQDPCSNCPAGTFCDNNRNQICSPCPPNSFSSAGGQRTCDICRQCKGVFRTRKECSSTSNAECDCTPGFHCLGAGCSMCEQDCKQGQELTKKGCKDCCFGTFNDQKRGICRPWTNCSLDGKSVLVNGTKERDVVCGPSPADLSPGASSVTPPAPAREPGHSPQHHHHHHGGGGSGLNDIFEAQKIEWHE
Put plainly: Biacore SPR, vs parent H183/L072. Background: In SPR one partner is held on a chip, and binding of the other changes the refractive index at the surface.
For the molecule B1, the “fold change of affinity” value is 0.8 fold.

With B2, the “fold change of affinity” value is 0.4 fold. B3: the “fold change of affinity” value stood at 0.4 fold. B4: the “fold change of affinity” value amounted to 0.3 fold.

With B5, the “fold change of affinity” value turned out to be 0.9 fold.

Take B6: the “fold change of affinity” value was 0.9 fold. For the molecule B7, the “fold change of affinity” value was 0.4 fold. The same measure for B8: 1 fold; for B9: 0.3 fold. The same measure for B10: 1 fold; for B11: 0.2 fold. In the case of B12, the “fold change of affinity” value turned out to be 0.3 fold. The result for B13 reads 0.4 fold; that for B14, 1 fold. Turning to B15, the “fold change of affinity” value came out at 0.4 fold. The result for B16 reads 0.9 fold. In the case of B17, the “fold change of affinity” value was found to be 0.7 fold. B18: the “fold change of affinity” value stood at 0.4 fold. For the molecule B19, the “fold change of affinity” value was determined as 0.7 fold. The result for B20 reads 0.5 fold.
